Test results from US20120028912.

Target: T1, HIV-1 Tat protein, wild type
T1 chain: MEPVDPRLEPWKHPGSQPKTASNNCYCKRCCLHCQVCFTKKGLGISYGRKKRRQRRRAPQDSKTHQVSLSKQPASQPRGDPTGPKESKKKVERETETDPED

B1: p300/CBP-associated factor (P/CAF), HA-tagged (protein)
chain: MSEAGGAGPGGCGAGAGAGAGPGALPPQPAALPPAPPQGSPCAAAAGGSGACGPATAVAAAGTAEGPGGGGSARIAVKKAQLRSAPRAKKLEKLGVYSACKAEESCKCNGWKNPNPSPTPPRADLQQIIVSLTESCRSCSHALAAHVSHLENVSEEEMNRLLGIVLDVEYLFTCVHKEEDADTKQVYFYLFKLLRKSILQRGKPVVEGSLEKKPPFEKPSIEQGVNNFVQYKFSHLPAKERQTIVELAKMFLNRINYWHLEAPSQRRLRSPNDDISGYKENYTRWLCYCNVPQFCDSLPRYETTQVFGRTLLRSVFTVMRRQLLEQARQEKDKLPLEKRTLILTHFPKFLSMLEEEVYSQNSPIWDQDFLSASSRTSQLGIQTVINPPPVAGTISYNSTSSSLEQPNAGSSSPACKASSGLEANPGEKRKMTDSHVLEEAKKPRVMGDIPMELINEVMSTITDPAAMLGPETNFLSAHSARDEAARLEERRGVIEFHVVGNSLNQKPNKKILMWLVGLQNVFSHQLPRMPKEYITRLVFDPKHKTLALIKDGRVIGGICFRMFPSQGFTEIVFCAVTSNEQVKGYGTHLMNHLKEYHIKHDILNFLTYADEYAIGYFKKQGFSKEIKIPKTKYVGYIKDYEGATLMGCELNPRIPYTEFSVIIKKQKEIIKKLIERKQAQIRKVYPGLSCFKDGVRQIPIESIPGIRETGWKPSGKEKSKEPRDPDQLYSTLKSILQQVKSHQSAWPFMEPVKRTEAPGYYEVIRFPMDLKTMSERLKNRYYVSKKLFMADLQRVFTNCKEYNAAESEYYKCANILEKFFFSKIKEAGLIDK
Superinduction of Tat transactivation activity: as much as a 30-fold increase upon P/CAF stimulation
